The target of the test is Sho1 SH3 (SHO1_YEAST), P40073. Nature of the test: SPOT array.
Chain of Sho1 SH3 (SHO1_YEAST), P40073 (P40073 295-366): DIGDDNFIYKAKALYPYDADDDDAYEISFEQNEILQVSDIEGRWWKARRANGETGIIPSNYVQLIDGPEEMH
With SELPKSPYRQKPTQ [124-137 " involved in meiosis, nuclear division and spore formation"], the normalised SPOT signal, Boehringer light units (BLU); mean over the file's lines of this peptide stood at 200.
The molecule SDKPLTPTKTSSTL [341-354 DNA Damage Inducible; binds to T- and V- snare complexes] had a normalised SPOT signal, Boehringer light units (BLU); mean over the file's lines of this peptide of 135.
Regarding SGKPKKPYRRWTPE [666-679 negative regulator of prp genes], the normalised SPOT signal, Boehringer light units (BLU); mean over the file's lines of this peptide came to 233.
The same measure for RRKPHSPNKKKPKE [12-25 Hypothetical ORF]: 173; for RVHPEPPNKPGITT [407-420 Hypothetical ORF]: 149.
The value for SASPTLPTRRSRRL [62-75 Hypothetical ORF] was 212; that for SHQPYLPIKNKNIV [329-342 Hypothetical ORF] was 65.5.
The same measure for SHLPLIPEKIKSLK [203-216 similar to E. coli DinB and S. cerevisiae REV1]: 175; for SLAPVYPLKSLLRI [665-678 Hypothetical ORF]: 91.3; for RRGPGRPRKDASTS [204-217 nuclear protein involved in silencing]: 998.
SGKPLFPGRDYHHQ [221-234 MAP protein kinase homolog involved in pheromone signal transduction] had a normalised SPOT signal, Boehringer light units (BLU); mean over the file's lines of this peptide of 103.
Regarding SKIPMLPSRRTMAG [505-518 Meiotic regulatory protein; Cys-His zinc fingers], the normalised SPOT signal, Boehringer light units (BLU); mean over the file's lines of this peptide turned out to be 1130.
In turn, SKGPRTPAKEILEF [310-323 " similar to Est1, which is a putative component of telomerase"] registered a normalised SPOT signal, Boehringer light units (BLU); mean over the file's lines of this peptide of 1610.
The molecule RPSPWLPSKPNSYH came in with a normalised SPOT signal, Boehringer light units (BLU); mean over the file's lines of this peptide of 1300.
SAFPQSPIRAYGST [1382-1395 negative regulator of early meiotic genes] came in with a normalised SPOT signal, Boehringer light units (BLU); mean over the file's lines of this peptide of 75.1.
For the molecule SKFPELPSKVHNAV [141-154 methionyl tRNA synthetase], the normalised SPOT signal, Boehringer light units (BLU); mean over the file's lines of this peptide stood at 124.
Molecule SASPYRPQRLPAKF [13-26 Hypothetical ORF] showed a normalised SPOT signal, Boehringer light units (BLU); mean over the file's lines of this peptide of 118.
The molecule SDLPSSPIKAPNVE [232-245 DNA replication helicase] had a normalised SPOT signal, Boehringer light units (BLU); mean over the file's lines of this peptide of 191.
Molecule SALPILPKREVVTR [19-32 soluble cell wall protein] showed a normalised SPOT signal, Boehringer light units (BLU); mean over the file's lines of this peptide of 141.
For SEEPTSPTRQVNPE [443-456 Putative participant in 3' mRNA processing], the normalised SPOT signal, Boehringer light units (BLU); mean over the file's lines of this peptide came out at 157.
In turn, RPTPRKPSRMATDH [8-21 Transmembrane osmosensor] returned a normalised SPOT signal, Boehringer light units (BLU); mean over the file's lines of this peptide of 1440.
For RPPPLTPEKNLYLT [258-271 Putative participant in 3' mRNA processing], the normalised SPOT signal, Boehringer light units (BLU); mean over the file's lines of this peptide was determined as 117.

Source of the values: paper PMC314469, “Protein Interaction Networks by Proteome Peptide Scanning” (PLoS Biology, 2004).
